The results in this text go back to patent publication US20240101687A1 (ABL BIO, published 2024).

The target of test [1] is T1, human alpha-synuclein aggregates (fibrils) (human, UniProt P37840 1-140). Kind of test: BIAcore as in Example 4-3, α-syn aggregates.
Experimental: (§1) The running buffer, analyte dilution, and the sample dilution buffer were HBS-EP. […] For the capture, the monomer was for RU of 800 (theoretical), and a fibril was for RU of 100 (theoretical). The capture phase was performed at contact time of 60 seconds, a flow rate of 30 μl/min, and a stabilization period of 180 seconds. The association phase was performed at the association time of 120 seconds and the flow rate was 30 μl/min. The dissociation phase was performed at the dissociation time of 360 seconds and the flow rate of 30 l/min. The regeneration phase was performed twice time at the regeneration time of 240 seconds (primary) and 60 seconds (secondary) and a flow rate of 30 μl/min. The fitting was carried out suing 1:1 binding model, and the evaluation software was BIACore T200 Evaluation software (GE healthcare).
For test [2], the target named is T2, amyloid beta1-42 aggregates (UniProt P05067 672-713).
T2 construct: domain: amyloid beta1-42; aggregates prepared by Prof; Seung-jae Lee; also called amyloid beta1-42-derived aggregates
Kind of test: dot blot, monomer and fibril of each protein spotted in rising amounts, antibody as probe.
Experimental: (§2) The specific binding ability of the antibodies to the alpha-synuclein aggregate was analyzed by reacting with a blot.

Another test has as its target T3, Aβ42 (Monomer) (human, UniProt P05067).
T3 construct: recombinant, monomer (not aggregated); m20 is the aggregated form; also called amyloid beta1-42 monomer
The description is as above.

The target of the next test is T4, human beta-synuclein (human, UniProt Q16143 1-134, limits assumed).
T4 construct: bought
Kind of test: ELISA, human beta-synuclein coated at 100 ng/ml.

Another test deals with T5, Tau protein aggregates (UniProt P10636-8 1-441, limits assumed).
T5 construct: aggregates prepared by Prof; Seung-jae Lee; also called tau-derived aggregates
Kind of test: dot blot.

The target in test [3] is T1, human alpha-synuclein aggregates …. Kind of test: SPR (BIAcore), antibody captured on Protein A chip, alpha-Syn fibril as analyte, 1:1 binding fit, 25 C.
Test [4] has as its target T6, human IGF1R extracellular domain, His-tagged (human, UniProt P08069 31-932).
T6 construct: Bought (R&D Systems 391-GR or Sino Biological 10164-H08H); also called recombinant IGF1R; ECD of IGF1R
Kind of test: ELISA on coated IGF1R, antibody titrated up to 400 nM; C of the 4-P fit, D 0.945; curve at baseline up to 16 nM, about 0.2 at 80 nM and 0.75 at 400 nM, no plateau in the data; the text says the single antibody did not bind.

Test [5] addresses T7, mouse IGF1R on bEND.3 brain endothelial cells (mouse, UniProt Q60751 31-1373).
T7 construct: whole, on cells; also called IGF1R expressed on the surface of brain endothelial cells
Kind of test: FACS on bEND.3 mouse brain endothelial cells; MFI of secondary Ab only 3.20.

For another test, the target named is T8, human gamma-synuclein (human, UniProt O76070 1-127, limits assumed).
T8 construct: bought
Kind of test: ELISA, human gamma-synuclein coated at 100 ng/ml.

Test [6] has as its target T6, human IGF1R extracellular domain, …. Kind of test: ELISA on coated IGF1R, antibody titrated up to 400 nM; C of the 4-P fit, D 2.68; curve at baseline up to about 3 nM, about 0.8 at 80 nM and 1.75 at 400 nM, no plateau in the data; the text says the single antibody did not bind.
Test [7] has as its target T1, human alpha-synuclein aggregates …. Kind of test: ELISA, alpha-synuclein aggregates coated, antibody titrated up to 400 nM; C of the 4-P fit.
Experimental: (§3) The alpha-synuclein aggregates were coated on a 96-well plate at a concentration of 1 ug/ml for 18 hours, and after washing, was treated with each antibody by diluting by 5 times from 400 nM. The bound antibodies were bound to anti-human Fc-HRP and then performed by color development with TMB solution, to measure the degree of binding of the antibody.
Test [8] has as its target T7, mouse IGF1R on bEND.3 brain endothelial …. Kind of test: FACS on bEND.3 mouse brain endothelial cells.
Test [9] has as its target T1, human alpha-synuclein aggregates …. Kind of test: sandwich ELISA, antibody coated 0.04-400 nM, fibril aggregates 2000 ng/ml.
Experimental: (§4) Specifically, each antibody was diluted at 1/10 ratio of concentrations 0.04 to 400 nM and was coated on a 96-well plate, and then each well was treated with synuclein fibril aggregates were treated at 2000 ng/ml. After washing with 1×PBS, streptavidin conjugated with HRP and secondary antibody conjugate with biotin was treated and then reacted with TMB as a substrate. The absorbance was measured.
Test [10] shares this target. Kind of test: SPR (BIAcore), antibody captured on Protein A chip, alpha-synuclein fibril (sample aSyn180330) as analyte, 1:1 binding fit, 25 C.
Experimental: as §1
Test [11] has the same target. Kind of test: ELISA, alpha-synuclein aggregates coated at 1 ug/ml, antibody titrated 5-fold from 400 nM, anti-human Fc-HRP; C of the 4-P fit.
Experimental: as §3
The target is the same in test [12]. Kind of test: sandwich ELISA, antibody coated in a dilution series, synuclein fibril aggregates at 2000 ng/ml; C of the 4-P fit, which paragraph 260 calls EC50.
Experimental: as §4
For a further test, the target named is T9, human IGF1R on cells (human, UniProt P08069 31-1367).
T9 construct: also called endogenous IGF1R on the cell surface (MCF-7, JIMT-1, BT474, SKBR3); IGF1R library on OVCAR3 cells
Kind of test: FACS on MCF-7 cells, 10 ug/mL (2nd Ab only: 2.86).

In test [13] the target is T6, human IGF1R extracellular domain, …. Kind of test: SPR (Biacore T200), His-tagged human IGF1R ECD captured by anti-His antibody on CM4 chip, bivalent model; 1564 IgG.
Experimental: (§5) The anti-his antibody against the His tag bound to the human IGF1R ECD as an antigen was diluted to 20 μg/ml in acetate pH4.0 buffer, and then immobilized in the reference/analytic channel of the CM4 chip to 10,000 RU as a target RU according to the amine coupling method. During capture, PBS was used as a running buffer, and the flow rate was maintained at 30 μL/min. During association/dissociation, the flow rate was 40 μL/min, and PBS was used as the running buffer. The association/dissociation was 5 minutes and 20 minutes, respectively.
Test [14] shares this target. Kind of test: ELISA, IGF1R coated, anti-human Fab-HRP.
Experimental: To this end, firstly, human, monkey, mouse and rat IGF1R antigens were diluted to 1 ug/ml, added to each well 100 ul, and reacted at 4° C. for 15 hours to be coated on the bottom of the plate. After removing the supernatant, 200 ul of PBS buffer containing 3% BSA was treated in each well to block non-specific binding. The anti-IGF1R antibodies were diluted by 5 times in PBSB (BSA 3% in PBS) at a maximum concentration of 400 nM, treated in each well, and reacted at 37° C. for 1 hour. Then, after washing with PBS buffer 5 times, the anti-human Fab HRP recognizing the Fab portion of the bound antibody was diluted 1:20000 was treated at 100 ul of each well, and reacted at 37° C. for 1 hour. The product was washed 5 times with PBS buffer and the color development was performed with TMB (Tetramethylbenzidine, Sigma, T0440) according to the manufacturer's method. […] When many samples are used in the ELISA analysis, the plates were divided into two.
Test [15] shares this target. Kind of test: SPR (Biacore), human IGF1R ECD-His captured by anti-His antibody on CM4 chip, 1564-IgG as analyte, bivalent analyte fit, 25 C; upper panel.
Experimental: as §5
Test [16] has the same target. Kind of test: SPR (Biacore), human IGF1R ECD-His captured by anti-His antibody on CM4 chip, 1564-IgG as analyte, bivalent analyte fit, 25 C; lower panel.
Experimental: as §5
Test [17] has the same target. Kind of test: SPR (Biacore T200), His-tagged human IGF1R ECD captured by anti-His antibody on CM4 chip, bivalent model; F06 IgG.
Experimental: as §5

T7 sequence (Q60751 31-1373): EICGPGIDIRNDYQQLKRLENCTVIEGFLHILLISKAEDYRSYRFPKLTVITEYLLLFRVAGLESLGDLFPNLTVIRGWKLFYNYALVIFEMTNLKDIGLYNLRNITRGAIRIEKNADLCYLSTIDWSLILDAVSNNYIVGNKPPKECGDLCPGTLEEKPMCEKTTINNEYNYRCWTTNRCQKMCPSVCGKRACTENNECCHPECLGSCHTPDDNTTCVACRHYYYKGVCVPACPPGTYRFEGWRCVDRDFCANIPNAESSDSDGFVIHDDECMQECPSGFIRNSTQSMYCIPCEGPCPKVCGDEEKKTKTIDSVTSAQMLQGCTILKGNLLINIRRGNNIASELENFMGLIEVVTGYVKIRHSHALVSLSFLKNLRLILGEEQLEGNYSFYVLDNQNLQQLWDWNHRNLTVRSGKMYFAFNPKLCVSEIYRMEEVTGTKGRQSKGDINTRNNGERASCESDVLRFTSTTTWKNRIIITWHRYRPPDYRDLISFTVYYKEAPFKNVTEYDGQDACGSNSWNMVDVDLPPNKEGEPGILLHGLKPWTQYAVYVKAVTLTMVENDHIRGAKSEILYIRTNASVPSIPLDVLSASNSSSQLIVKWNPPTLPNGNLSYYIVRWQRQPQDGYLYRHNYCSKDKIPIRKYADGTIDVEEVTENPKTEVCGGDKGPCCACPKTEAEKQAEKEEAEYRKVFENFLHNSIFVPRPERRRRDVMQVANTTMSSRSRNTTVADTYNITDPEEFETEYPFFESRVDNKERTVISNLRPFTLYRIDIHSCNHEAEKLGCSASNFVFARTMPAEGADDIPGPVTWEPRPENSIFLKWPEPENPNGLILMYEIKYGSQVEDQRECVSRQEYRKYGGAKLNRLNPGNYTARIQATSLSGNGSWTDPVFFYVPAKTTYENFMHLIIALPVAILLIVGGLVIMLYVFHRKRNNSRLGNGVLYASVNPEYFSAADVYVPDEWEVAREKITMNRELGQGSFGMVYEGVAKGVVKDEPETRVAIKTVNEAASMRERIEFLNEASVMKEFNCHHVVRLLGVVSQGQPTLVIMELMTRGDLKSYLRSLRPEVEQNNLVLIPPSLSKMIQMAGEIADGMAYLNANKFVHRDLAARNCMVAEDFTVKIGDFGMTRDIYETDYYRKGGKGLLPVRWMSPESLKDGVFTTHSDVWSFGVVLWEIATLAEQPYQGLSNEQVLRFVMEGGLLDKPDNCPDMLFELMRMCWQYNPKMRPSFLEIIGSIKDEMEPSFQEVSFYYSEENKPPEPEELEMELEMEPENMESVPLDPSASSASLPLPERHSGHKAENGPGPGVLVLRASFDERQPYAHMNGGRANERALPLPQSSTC
T5 sequence (P10636 other isoform, or with tags, fused parts or gaps limits assumed): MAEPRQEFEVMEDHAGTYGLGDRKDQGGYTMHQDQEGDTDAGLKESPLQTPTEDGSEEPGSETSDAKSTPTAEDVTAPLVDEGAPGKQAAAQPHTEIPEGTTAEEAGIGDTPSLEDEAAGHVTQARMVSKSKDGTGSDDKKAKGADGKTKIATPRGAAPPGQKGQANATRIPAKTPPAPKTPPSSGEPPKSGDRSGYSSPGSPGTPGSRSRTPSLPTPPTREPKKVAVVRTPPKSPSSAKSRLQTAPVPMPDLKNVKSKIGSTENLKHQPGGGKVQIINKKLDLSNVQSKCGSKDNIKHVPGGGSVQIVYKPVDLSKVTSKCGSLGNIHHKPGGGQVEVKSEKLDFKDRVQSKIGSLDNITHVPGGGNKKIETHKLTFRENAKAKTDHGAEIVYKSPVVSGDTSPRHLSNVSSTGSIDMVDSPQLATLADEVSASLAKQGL
T8 sequence (O76070 whole entry): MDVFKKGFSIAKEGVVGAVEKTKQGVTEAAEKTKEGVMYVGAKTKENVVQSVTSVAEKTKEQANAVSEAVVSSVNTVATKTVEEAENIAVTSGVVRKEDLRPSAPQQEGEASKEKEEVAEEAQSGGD
T4 sequence (Q16143 whole entry): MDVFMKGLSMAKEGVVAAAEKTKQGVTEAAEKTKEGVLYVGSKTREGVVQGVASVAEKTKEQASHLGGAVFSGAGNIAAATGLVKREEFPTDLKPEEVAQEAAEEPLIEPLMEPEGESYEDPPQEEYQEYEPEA
Experimental for Aβ42 (Monomer): as §2
Experimental for human IGF1R on cells: After washing with PBS buffer containing 1% BSA, the secondary antibody bound with FITC to detect human antibodies was treated for 1 hour.
Text for human beta-synuclein: (§6) For the positive control, RP-bound goat anti-rabbit was used as a detection antibody.
Text for human gamma-synuclein: as §6

B1: chimeric 11F11 antibody (antibody, V domains shown)
VH: EVQLQESGGGLVQPGGSLRLSCATSGFTFSDFYMEWVRQPPGKRLEWIAASRNKANDYTTEYSASVKGRFIVSRDTSQSILYLQMNALRAEDTAIYYCARDAHGKPFAYWGQGTLVTVSA
VL: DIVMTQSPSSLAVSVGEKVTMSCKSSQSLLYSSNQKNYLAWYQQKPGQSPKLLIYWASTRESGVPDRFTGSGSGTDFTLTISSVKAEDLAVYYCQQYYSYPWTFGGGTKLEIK
notes: also called Ch11F11; ch11F11
Regarding B1, the Kd in [1] was found to be 0.0247 nM. For the same molecule, the binding result (in test [2]; with Aβ42 (Monomer); with human beta-synuclein; with Tau protein aggregates; in the test with human gamma-synuclein; in [8]) was “no binding” in each case. Also, the off-rate (koff) was found to be 8.88e-05 s⁻¹ in test [3] and 0.000563 s⁻¹ in test [10]. Further, the kon in test [3] came to 193000 M⁻¹ s⁻¹; in test [10], 609000 M⁻¹ s⁻¹. Moreover, the EC50 was 196 nM in test [4]; 201 nM in [6]; 1.27 nM in test [7]; 12.5 nM in [9]; 33.8 nM in [11]. Besides, the MFI in test [5] worked out at 3.26.

B2: hu11F11(ver.2) (antibody, human IgG1, kappa, V domains shown)
VH: EVQLVESGGGLVQPGGSLRLSCATSGFTFSDFYMEWVRQPPGKRLEWIAASRNKANDYTTEYSASVKGRFTVSRDDSKSSLYLQMNSLRAEDTAIYYCARDAHGKPFAYWGQGTTVTVSS
VL: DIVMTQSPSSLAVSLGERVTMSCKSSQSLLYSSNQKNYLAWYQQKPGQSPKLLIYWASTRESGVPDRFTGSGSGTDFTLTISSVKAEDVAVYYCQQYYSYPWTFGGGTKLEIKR
notes: humanized IgG1; also called Hu11F11-VH-v2 + Hu11F11-VLv3 4c
For B2, the Kd in test [1] was found to be 0.0596 nM. The same molecule gave a 50% effective concentration (EC50) in test [12] of 15.1 nM. Moreover, the “GeoMean, Internalization at 37° C.” value with human IGF1R on cells is 3.18. In test [10], this molecule had an off-rate (koff) of 0.000173 s⁻¹ and an on-rate constant (kon) of 1.19e+06 M⁻¹ s⁻¹.

B3: 1564 IgG (antibody, V domains shown)
VH: EVQLLESGGGLVQPGGSLRLSCAASGFTFSSYDMSWVRQAPGKGLEWVSAISYDNGNTYYADSVKGRFTISRDNSKNTLYLQMNSLRAEDTAVYYCAKGVLTTLMNWFDYWGQGTLVTVSS
VL: QSVLTQPPSASGTPGQRVTISCTGSSSNIGSNDVSWYQQLPGTAPKLLIYANSNRPSGVSDRFSGSKSGTSASLAISGLRSEDEADYYCGAWDDSLNGYVFGGGTKLTVLR
Regarding B3, the Kd in test [13] was found to be 2.53 nM. In [5], this molecule showed an MFI of 7.55. In test [14], this molecule yielded an EC50 of 0.0823 nM. For the same molecule, in [15], the koff amounted to 2.41e-06 s⁻¹ and the association rate constant (kon) worked out at 902 M⁻¹ s⁻¹. This molecule also registered a koff in test [16] of 2.53e-06 s⁻¹.

B4: F06 IgG antibody (antibody, V domains shown)
VH: EVQLLESGGGLVQPGGSLRLSCAASGFTFSSYDMSWVRQAPGKGLEWVSAISYDNGNTYYADSVKGRFTISRDNSKNTLYLQMNSLRAEDTAVYYCAKGVLTTLMNWFDYWGQGTLVTVSS
VL: QSVLTQPPSASGTPGQRVTISCTGSSSNIGSNDVSWYQQLPGTAPKLLIYANSNRPSGVPDRFSGSKSGTSASLAISGLRSEDEADYYCGTWAGSLNGYVFGGGTKLTVL
For B4, the Kd in test [17] came to 478 nM.
